Source: US20080227698A1, “OLIGOPEPTIDES FOR TREATMENT OF OSTEOPOROSIS AND OTHER BONE DISEASES AND METHODS THEREOF” (Washington University, priority 2005, published 2008)
One block for each molecule: values may come before it.

Columns and labels:
[1] = tested on: Wnt signaling; experiment: Wnt signalling TCF/LEF-Luc assay in HEK293 cells (Wnt3A conditioned medium plus Dkk1); format: cell-based; conditions: Wnt3A conditioned medium plus Dkk1 protein at 10 nM
Procedure: HEK293 cells were plated into six-well plates. For each well, […] of the TOP-[…] luciferase construct (Upstate Biotechnology) was cotransfected with 0.8 μg Mesd-expressing vector, 0.8 μg Mesd mutant-expressing vector, or empty vector. A β-galactosidase-expressing vector (Promega, Madison, Wis.) was included as an internal control for transfection efficiency. After 48 hours, cells were lysed and both luciferase and β-galactosidase activities were determined with enzyme assay kits (Promega). The luciferase activity was determined with a luminometer using the Dual Luciferase Assay system (Promega). Luciferase activity was normalized to the activity of the P-galactosidase.

[2] = biological target: T1, LRP6 (Homo sapiens, UniProt O75581); experiment: ^125I-DKK1 binding to LRP6-transduced HT1080 cells; set-up: plasmid pCS-Myc-hLRP6 containing the full-length human LRP6 cDNA; HA; expressed in transfected cells; host or cells: human HT1080 cells, stably transduced (pLNCX2 retroviral vector); conditions: ^125I-DKK1 5 nM, 3 hours at 4° C.
Procedure: (§1) Cells (2×10^5) were seeded into 12-well dishes 1 day prior to assay. Ligand-binding buffer (minimal Eagle's medium containing 0.6% BSA with a different concentration of radioligand, 0.6 ml/well) was added to cell monolayers, in the absence or the presence of 500 nM unlabeled RAP or 500 nM unlabeled Mesd, followed with incubation for 0-4 hours at 4° C. Thereafter, overlying buffer containing unbound ligand was removed, and cell monolayers were washed and lysed in low-SDS lysis buffer (62.5 mM Tris-HCl pH 6.8, 0.2% SDS, 10% v/glycerol) and counted.
RAP is a receptor antagonist for members of the LDLR family, and is able to inhibit the binding of most known ligands of the LDLR family members. […] In these experiments, Serum-free conditioned medium was harvested from HEK293 cells transiently transfected with cDNA for human Myc-DKK1 and allowed to bind to LRP6-transduced HT1080 cells (B,C) and control cells (A) in the absence (A,B) or presence (C) of 1 μM Mesd. Cell-surface-bound Myc-tagged DKK proteins were fixed and detected by immunofluorescence staining with anti-Myc antibody. […] Binding of 125I-DKK1 (5 nM) to LRP6-transduced HT1080 cells or the control cells was carried out for 3 hours at 4° C. in the absence (total) or presence of 500 nM RAP or 500 nM Mesd. […] LRP6-mediated 125I-Mesd (5 nM) degradation was carried out for 4 hours at 37° C. in the absence or presence of 500 nM RAP or 500 nM Mesd. Values are the means of triple determinations with the s.d. indicated by error bars. Bar, 10 μm.

[3] = biological target: T1, LRP6; experiment: LRP6-mediated ^125I-DKK1 degradation in LRP6-transduced HT1080 cells; format: cell-based; set-up: plasmid pCS-Myc-hLRP6 containing the full-length human LRP6 cDNA; HA; expressed in transfected cells; host or cells: human HT1080 cells, stably transduced (pLNCX2 retroviral vector); conditions: 5 nM, 4 hours at 37° C.
Procedure: Ligand degradation was performed using the methods as described (Li, Y., J. Biol. Chem. 275: 17187-17194, 2000). Briefly, 2×10^5 cells were seeded into 12-well dishes 1 day prior to assay. Pre-warmed assay buffer (minimal Eagle's medium containing 0.6% BSA with radioligand, 0.6 ml/well) was added to cell monolayers in the absence or the presence of unlabeled 500 nM RAP or 500 nM Mesd, followed by incubation for 4 hours at 37° C. Thereafter, the medium overlying the cell monolayers was removed and proteins were precipitated by addition of BSA to 10 mg/ml and trichloroacetic acid to 20%. […] After each time point, the plates were quickly placed on ice and the assay buffer was replaced with cold stop/strip solution. ^125I-anti-HA IgG that remained on the cell surface was stripped by incubation of cell monolayers with cold stop/strip solution for a total of 20 minutes (0.75 ml for 10 minutes, twice) and counted. Cell monolayers were then solubilized with low-SDS lysis buffer and counted. […] The fraction of internalized ^125I-anti-HA IgG after each time point was calculated and plotted.
RAP is a receptor antagonist for members of the LDLR family, and is able to inhibit the binding of most known ligands of the LDLR family members. […] Cell-surface-bound Myc-tagged DKK proteins were fixed and detected by immunofluorescence staining with anti-Myc antibody. […]

[4] = biological target: T1, LRP6; experiment: ^125I-Mesd cell surface ligand binding to LRP6-transduced HT1080 cells; set-up: plasmid pCS-Myc-hLRP6 containing the full-length human LRP6 cDNA; HA; expressed in transfected cells; host or cells: human HT1080 cells, stably transduced (pLNCX2 retroviral vector); conditions: for Binding of Mesd truncation mutants to cell surface LRP6: LRP6-transduced HT1080 cells, 5 nM ^125I-labelled, 3 hours at 4° C. for Mesd (150-195)
Procedure: To examine whether Mesd binds with high affinity to […] at the cell surface, cell surface ligand binding experiments were performed with cells stably transduced with LRP6 cDNA. Human HT1080 cells, which express undetectable levels of LRP6, were transduced with a viral vector alone (pLNCX2) or with vector containing LRP6 cDNA (Li, Y., Oncogene 23: 9129-9135, 2004) and used for ^125I-Mesd binding (FIG. 1A). ^125I-Mesd (5 nM) reached maximal binding after 2 hours incubation at 4° C. with LRP6-expressing HT1080 cells (FIG. 1A).
(A) Time course of ^125I-Mesd (5 nM) binding to LRP6-transduced HT1080 cells and the control cells. Assay was carried out for the indicated periods at 4° C. in the absence (total) or presence of 500 nM Mesd (non-specific). (B) Saturation binding of ^125I-Mesd to LRP6-transduced HT1080 cells and the control cells. Assay was carried out at indicated concentrations for 3 hours at 4° C. in the absence (total) or presence (non-specific) of 500 nM Mesd. (C) Scatchard plots of data in B. All values are the average of triple determinations with the s.d. indicated by error bars.
as §1

[5] = biological target: T1, LRP6; experiment: LRP6-mediated ^125I-Mesd degradation in LRP6-transduced HT1080 cells; format: cell-based; set-up: plasmid pCS-Myc-hLRP6 containing the full-length human LRP6 cDNA; HA; expressed in transfected cells; host or cells: human HT1080 cells, stably transduced (pLNCX2 retroviral vector); conditions: 500 nM unlabeled competitor, ^125I-Mesd 5 nM, 4 hours at 37° C.
Procedure: Ligand degradation was performed using the methods as described (Li, Y., J. Biol. Chem. 275: 17187-17194, 2000). Briefly, 2×10^5 cells were seeded into 12-well dishes 1 day prior to assay. Pre-warmed assay buffer (minimal Eagle's medium containing 0.6% BSA with radioligand, 0.6 ml/well) was added to cell monolayers in the absence or the presence of unlabeled 500 nM RAP or 500 nM Mesd, followed by incubation for 4 hours at 37° C. Thereafter, the medium overlying the cell monolayers was removed and proteins were precipitated by addition of BSA to 10 mg/ml and trichloroacetic acid to 20%. Degradation of radioligand was defined as the appearance of radioactive fragments in the overlying medium that were soluble in 20% trichloroacetic acid. Kinetic analysis of endocytosis LRP6-transduced HT1080 cells were plated in 12-well plates at a density of 2×10^5 cells/well and used after overnight culture. Cells were rinsed twice in ice-cold assay buffer (minimal Eagle's medium containing 0.6% BSA), and ^125I-anti-HA IgG was added at 1 nM final concentration in cold assay buffer (0.5 ml/well). The binding of ^125Ianti- HA IgG was carried out at 4° C. for 90 minutes with gentle rocking. Unbound ^125I-anti-HA IgG was removed by washing cell monolayers three times with cold assay buffer. Ice-cold stop/strip solution (0.2 M acetic acid, pH 2.6, 0.1 M NaCl) was added to one set of plates without warming up and kept on ice. The remaining plates were then placed in a 37° C. water bath and 0.5 ml assay buffer prewarmed to 37° C. was quickly added to cell monolayers to initiate internalization. After each time point, the plates were quickly placed on ice and the assay buffer was replaced with cold stop/strip solution. ^125I-anti-HA IgG that remained on the cell surface was stripped by incubation of cell monolayers with cold stop/strip solution for a total of 20 minutes (0.75 ml for 10 minutes, twice) and counted. Cell monolayers were then solubilized with low-SDS lysis buffer and counted. […] The fraction of internalized ^125I-anti-HA IgG after each time point was calculated and plotted. […]

[6] = biological target: T1, LRP6; experiment: ^125I-RAP binding to LRP6-transduced HT1080 cells and control cells; set-up: plasmid pCS-Myc-hLRP6 containing the full-length human LRP6 cDNA; HA; expressed in transfected cells; host or cells: human HT1080 cells, stably transduced (pLNCX2 retroviral vector)
Procedure: as §1
Receptor-associated protein (RAP) binds with high affinity to LRP, megalin, VLDLR and apoER2, and with a lower affinity to the LDLR (Bu, G., Int. Rev. Cytol. 209, 79-116. 2001). To determine whether RAP and Mesd bind to identical, overlapping, or different sites on the receptors, binding and competition analysis of these two chaperones with HT1080 cells stably expressing LRP6 was performed.
In FIG. 8A, binding of ^125I-RAP (5 nM) to LRP6-transduced HT1080 cells and the control cells was carried out for 4 hours at 4° C. in the absence (total) or presence of 500 nM RAP, or 500 nM Mesd. In FIG. 8B, binding of ^125I-Mesd (5 nM) to LRP6-transduced HT1080 cells was carried out for 2 hours at 4° C. in the absence (total) or presence of various concentrations of RAP or 500 nM Mesd. (C) LRP6-mediated ^125I-Mesd (5 nM) degradation was carried out for 4 hours at 37° C. in the absence or presence of 500 nM Mesd or 500 nM RAP. Values are the means of triple determinations with the s.d. indicated by error bars.

[7] = biological target: T2, LRP6 on LRP6-transduced HT1080 cells (HA-tagged) (UniProt O75581 20-1613, limits assumed); experiment: competition against 125I-DKK1 for LRP6 (FIG. 10D)
T2 construct: whole, on cells; also called mature LRP6; cell surface LRP6

[8] = biological target: T3, human Myc-tagged LRP5 on transiently transfected HEK293 cells (human, UniProt O75197 32-1615); experiment: competition against 125I-Mesd for LRP5 (FIG. 10A)
T3 construct: whole, on cells; also called mature LRP5; pcDNA3.1C-Myc-hLRP5
T3 sequence (O75197 32-1615): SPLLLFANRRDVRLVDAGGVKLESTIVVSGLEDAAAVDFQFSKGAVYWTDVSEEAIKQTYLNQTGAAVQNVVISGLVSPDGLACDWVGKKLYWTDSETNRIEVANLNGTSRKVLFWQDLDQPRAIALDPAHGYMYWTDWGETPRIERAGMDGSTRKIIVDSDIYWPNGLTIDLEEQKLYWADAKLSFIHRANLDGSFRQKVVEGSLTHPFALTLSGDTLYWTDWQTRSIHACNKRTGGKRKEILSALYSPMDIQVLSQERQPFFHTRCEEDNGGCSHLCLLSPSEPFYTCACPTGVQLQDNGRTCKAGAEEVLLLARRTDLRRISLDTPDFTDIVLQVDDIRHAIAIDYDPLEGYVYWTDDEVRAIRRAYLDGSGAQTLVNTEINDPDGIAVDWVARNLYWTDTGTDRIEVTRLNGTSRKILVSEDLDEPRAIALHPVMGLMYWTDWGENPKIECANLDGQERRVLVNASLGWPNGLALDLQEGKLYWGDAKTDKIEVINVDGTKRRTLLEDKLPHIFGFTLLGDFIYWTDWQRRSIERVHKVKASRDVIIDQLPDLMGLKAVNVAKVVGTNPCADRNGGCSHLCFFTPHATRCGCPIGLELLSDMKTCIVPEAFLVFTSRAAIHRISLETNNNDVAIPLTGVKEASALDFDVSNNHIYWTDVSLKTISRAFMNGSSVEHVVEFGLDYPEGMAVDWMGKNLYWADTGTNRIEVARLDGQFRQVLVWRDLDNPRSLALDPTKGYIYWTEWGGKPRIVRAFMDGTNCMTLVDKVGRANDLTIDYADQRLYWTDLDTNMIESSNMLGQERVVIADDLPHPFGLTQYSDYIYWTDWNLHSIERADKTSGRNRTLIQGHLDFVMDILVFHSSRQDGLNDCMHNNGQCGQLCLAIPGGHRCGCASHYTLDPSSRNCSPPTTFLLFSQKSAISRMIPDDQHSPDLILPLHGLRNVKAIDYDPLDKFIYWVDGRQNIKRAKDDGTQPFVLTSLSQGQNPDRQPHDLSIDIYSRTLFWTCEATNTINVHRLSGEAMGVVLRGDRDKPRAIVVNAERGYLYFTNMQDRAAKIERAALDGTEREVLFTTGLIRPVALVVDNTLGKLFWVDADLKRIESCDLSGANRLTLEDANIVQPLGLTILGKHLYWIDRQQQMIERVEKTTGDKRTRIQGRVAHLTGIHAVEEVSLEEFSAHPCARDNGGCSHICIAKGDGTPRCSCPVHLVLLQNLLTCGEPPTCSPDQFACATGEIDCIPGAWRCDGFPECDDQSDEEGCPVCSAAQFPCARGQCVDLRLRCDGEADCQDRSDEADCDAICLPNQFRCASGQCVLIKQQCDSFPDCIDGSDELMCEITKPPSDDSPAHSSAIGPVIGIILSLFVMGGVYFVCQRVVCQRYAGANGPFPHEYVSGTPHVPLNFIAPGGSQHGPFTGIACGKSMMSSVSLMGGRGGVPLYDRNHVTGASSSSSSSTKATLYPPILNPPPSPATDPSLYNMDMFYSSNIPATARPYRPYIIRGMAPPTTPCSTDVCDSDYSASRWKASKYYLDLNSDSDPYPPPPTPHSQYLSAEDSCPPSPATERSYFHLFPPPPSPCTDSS

T1 sequence (O75581 20-1613): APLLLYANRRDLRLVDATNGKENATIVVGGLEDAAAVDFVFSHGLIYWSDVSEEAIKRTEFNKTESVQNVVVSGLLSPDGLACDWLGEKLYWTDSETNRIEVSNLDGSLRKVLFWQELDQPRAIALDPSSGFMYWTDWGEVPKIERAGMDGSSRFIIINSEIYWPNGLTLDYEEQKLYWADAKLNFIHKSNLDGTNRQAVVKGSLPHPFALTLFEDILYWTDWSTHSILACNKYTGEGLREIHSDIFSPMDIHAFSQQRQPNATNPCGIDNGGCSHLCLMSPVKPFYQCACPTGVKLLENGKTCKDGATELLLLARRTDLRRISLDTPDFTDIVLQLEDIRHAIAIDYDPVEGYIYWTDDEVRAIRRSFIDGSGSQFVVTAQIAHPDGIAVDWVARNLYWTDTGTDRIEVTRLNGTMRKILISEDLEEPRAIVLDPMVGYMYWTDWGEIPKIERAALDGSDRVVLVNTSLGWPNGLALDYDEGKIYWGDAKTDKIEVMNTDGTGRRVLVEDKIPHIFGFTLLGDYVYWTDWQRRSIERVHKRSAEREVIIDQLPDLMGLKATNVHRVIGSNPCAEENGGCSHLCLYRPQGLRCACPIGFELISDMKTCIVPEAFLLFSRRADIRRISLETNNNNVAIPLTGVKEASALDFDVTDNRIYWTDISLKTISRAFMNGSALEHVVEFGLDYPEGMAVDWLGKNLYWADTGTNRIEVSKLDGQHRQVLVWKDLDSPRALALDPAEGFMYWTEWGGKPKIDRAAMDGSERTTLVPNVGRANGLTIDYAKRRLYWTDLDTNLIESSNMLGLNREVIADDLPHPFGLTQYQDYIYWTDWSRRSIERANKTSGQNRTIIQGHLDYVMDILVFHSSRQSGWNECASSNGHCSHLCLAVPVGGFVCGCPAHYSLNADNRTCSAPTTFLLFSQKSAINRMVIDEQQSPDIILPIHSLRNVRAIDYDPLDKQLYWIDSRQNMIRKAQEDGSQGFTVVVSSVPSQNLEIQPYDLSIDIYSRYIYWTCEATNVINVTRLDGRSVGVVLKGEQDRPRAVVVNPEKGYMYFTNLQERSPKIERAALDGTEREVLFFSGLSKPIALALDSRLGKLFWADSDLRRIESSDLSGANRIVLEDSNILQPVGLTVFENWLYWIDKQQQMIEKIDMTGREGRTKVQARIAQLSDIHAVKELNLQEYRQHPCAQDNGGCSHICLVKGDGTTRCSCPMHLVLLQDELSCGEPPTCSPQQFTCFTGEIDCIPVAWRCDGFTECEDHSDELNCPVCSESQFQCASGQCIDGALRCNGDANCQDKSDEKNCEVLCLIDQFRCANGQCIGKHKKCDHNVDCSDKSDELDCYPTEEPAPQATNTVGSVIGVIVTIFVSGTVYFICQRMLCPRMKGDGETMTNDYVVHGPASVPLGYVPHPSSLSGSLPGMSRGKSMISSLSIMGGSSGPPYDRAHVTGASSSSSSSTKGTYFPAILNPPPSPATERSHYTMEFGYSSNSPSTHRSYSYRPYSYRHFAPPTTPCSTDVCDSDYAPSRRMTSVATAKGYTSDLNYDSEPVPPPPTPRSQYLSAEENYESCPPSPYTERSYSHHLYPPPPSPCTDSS
T2 sequence (O75581 20-1613 limits assumed): as the sequence (O75581 20-1613) above

- Inhibition of ^125I-Mesd degradation [5]: only partially
- Effect of excess unlabeled competitor on increased DKK1 binding ([2]; 500 nM competitor): not
- Inhibition of ^125I-Mesd binding to cell surface LRP6 ([4]; 500 nM unlabeled competitor, ^125I-Mesd 5 nM, 2 hours at 4° C.): ~60%
- Effect of excess unlabeled competitor on ^125I-RAP binding to control cells ([6]; 500 nM competitor, control cells expressing vector alone, 4° C.): completely eliminated this binding
- Increase of RAP binding in LRP6 expressing HT1080 cells compared to control cells ([6]; ^125I-RAP 5 nM, 4 hours at 4° C.): ~20%
Molecule: RAP: human recombinant 39 kDa receptor-associated protein, expressed in a GST expression vector [reference compound]

- Binding of Mesd truncation mutants to cell surface LRP6 [4]: completely abolished LRP6 binding
B1: Mesd(12-155): truncated Mesd mutant lacking both the N-terminal and C-terminal regions (protein)
chain: RKKKDIRDYNDADMARLLEQWEKDDDIEEGDLPEHKRPSAPIDFSKLDPGKPESILKMTKKGKTLMMFVTVSGNPTEKETEEITSLWQGSLFNANYDVQRFIVGSDRAIFMLRDGSYAWEIKDFLVSQDRCAEVTLEGQMYPGK
modifications: left off: small tags and cut ends
notes: truncated Mesd mutant lacking both the N-terminal and C-terminal regions

Second part, the molecule before the results:

Molecule: DKK1: human DKK1 protein, LRP6-specific ligand and antagonist; recombinant (R&D Systems) or Myc-tagged in conditioned medium
- Effect of Dkk1 on Wnt signaling (luciferase activity) [1]: inhibits Wnt signaling
- ^125I-DKK1 binding in LRP6-expressing HT1080 cells versus control cells [2]: significantly higher levels
- ^125I-DKK1 degradation in LRP6-expressing HT1080 cells versus control cells [3]: significantly higher levels

Molecule: KGGGSKEKNKTKPEKAKKKEGDRKPRASKEDNRAGSR [SEQ ID NO: 21]
- Restoring of Wnt signaling inhibited by Dkk1 (luciferase activity) [1]: at least partially restoring Wnt signaling

Molecule: QMYPGKGGGSKEKNKTKPEKAKKKEGDPKPRASKEDNRAGSRREDL [SEQ ID NO: 22]
- Restoring of Wnt signaling inhibited by Dkk1 (luciferase activity) [1]: at least partially restoring Wnt signaling
- Binding of Mesd truncation mutants to cell surface LRP6 [4]: necessary and sufficient for LRP6 binding

B2: MESD(12-195): truncated Mesd mutant lacking the N-terminal region (N-terminal 11 amino acids of mouse Mesd) (protein)
chain: RKKKDIRDYNDADMARLLEQWEKDDDIEEGDLPEHKRPSAPIDFSKLDPGKPESILKMTKKGKTLMMFVTVSGNPTEKETEEITSLWQGSLFNANYDVQRFIVGSDRAIFMLRDGSYAWEIKDFLVSQDRCAEVTLEGQMYPGKGGGSKEKNKTKPEKAKKKEGDRKPRASKEDNRAGSRREDL
modifications: left off: small tags and cut ends
- Binding of Mesd truncation mutants to cell surface LRP6 [4]: no effect on LRP6 binding

Molecule: KGGGSKEKNKTKPEKAKKKEGDPKPRASKEDNRAGSR (also called the oligopeptide) [Mesd oligopeptide KGGGSKEKNKTKPEKAKKKEGDPKPRASKEDNRAGSR (SEQ ID NO: 20)]
- fold reduction of ^125I-DKK1 binding [7]: > 2 fold
- fold reduction of ^125I-Mesd binding [8]: ~10 fold
